Data taken from patent JP2007175055A (dated 2007).

Legend:
[1] = biological target: human CD4 V1V2 polypeptide (AA1-AA180) (human, UniProt P01730 26-205); assay: RIA: CD4-V1V2 (5 ug/ml) competing with 125I-rsCD4 for immobilised antibody
[2] = biological target: T1, rhesus monkey CD4 on circulating and lymph node CD4+ cells (rhesus monkey, UniProt P16003 26-458); assay: FACS of rhesus monkey blood cells, indirect staining
T1 construct: whole, on cells; also called アカゲザルCD4+細胞

[3] = biological target: T2, human CD4 V1 polypeptide (AA1-AA113 and/or AA1-AA111) (human, UniProt P01730 26-138); assay: RIA: CD4-V1 competing with 125I-rsCD4 for immobilised antibody
T2 construct: range 1-113; also called CD4 VI

[4] = biological target: T3, human CD4 on the cell surface (human, UniProt P01730 26-458); assay: FACS: H9 cells pre-incubated with 10 ug r-gp120; competitors Leu3A and OKT4A
T3 construct: whole, on cells; also called cell surface CD4; CD4+ cells

[5] = biological target: T4, recombinant soluble human CD4 (AA1-AA375, V1-V4) (human, UniProt P01730 26-400); assay: affinity column of human rsCD4 on Affi-Gel 10
T4 construct: range 1-375; also called rsCD4

T1 sequence (P16003 26-458): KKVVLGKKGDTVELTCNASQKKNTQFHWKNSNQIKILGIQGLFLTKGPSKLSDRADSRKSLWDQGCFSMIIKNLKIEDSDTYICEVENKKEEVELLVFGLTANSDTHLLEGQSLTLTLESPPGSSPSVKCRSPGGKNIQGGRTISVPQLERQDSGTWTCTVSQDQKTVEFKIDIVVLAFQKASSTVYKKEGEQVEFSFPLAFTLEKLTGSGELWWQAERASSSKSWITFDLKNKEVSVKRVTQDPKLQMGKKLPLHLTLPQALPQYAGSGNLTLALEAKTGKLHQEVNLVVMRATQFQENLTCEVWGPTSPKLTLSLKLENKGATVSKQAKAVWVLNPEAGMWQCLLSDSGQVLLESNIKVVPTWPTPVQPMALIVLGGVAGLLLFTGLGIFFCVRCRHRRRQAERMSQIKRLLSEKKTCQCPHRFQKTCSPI

Binder | binding result [1] | binding result [2] | binding result [3] | binding result [4] | binding result [5]
mouse monoclonal antibody 5A8 (antibody, V domains shown, also called 5A8-2F6; hybridoma ATCC HB 10881 (IVI-10257)) VH: EVKLQESGPELVKPGASVKMSCKASGYTFTSYVIHWVRQKPGQGLDWIGYINPYNDGTDYDEKFKGKATLTSDKSSSTAYMELSSLTSEDSAVYYCAREKDNYATGAWFAYWGQGTTVTVSS VL: DIVMTQSPSSLAVSVGEKVTMICKSSQSLLYSTNQKNYLAWYQQKPGQSPKLLIYWASTRESGVPDRFTGSGSGTDFTLTISSVKAEDLAVYYCQQYYSYRTFGGGTKLEIK | binds | binds | no binding (tested: 5μg/ml) |  | 
soluble recombinant HIV gp120 (baculovirus) (ligand, also called r-gp120; HIV r-gp120) not shown |  |  |  | binds | binds
